The text below walks through data of the nanobody polyreactivity screen of Harvey et al. (2022).

The nature of this data set: yeast display, Sf9 membrane polyspecificity reagent, FACS + sequencing; frameworks hold sequencing errors. The procedure, abridged:
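Galactose induction of a Saccharomyces cerevisiae BJ5465 synthetic nanobody display library ran 36–48 hours. The cells were then stained for 1 hour at 4 °C with 10% biotinylated, detergent-solubilized Sf9 membrane reagent, pulled down on streptavidin microbeads and FACS-sorted into low and high (top ~1%) gates on expression and reagent-binding fluorescence. Labels for polyreactivity follow the gate of origin.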
Consider “QVLLVEAGRGLVQAGGSLRLSCAASGSIVVGYAMGCYRQAPGKERELVATISYSGDSTYYADSVKGRFTISRDNAKNTVYLQMNSLNPEDSAVYYCATESNGSPYKGDYWGQGTQVTVSS”, for which the “polyreactivity (PSR sort gate)” value is “low polyreactivity”.

As for “QVQLVESGGGLVQAGGSLRLSCAASGGILDTYALGWYRQAPGKERELVAAITSGGNTNYADSVKGRFTISRDNAKNTVYLQMNSLKPEDTAVYYCAALYTVSYLTSPVSYRYDYWGQGSQVTVSS”, the “polyreactivity (PSR sort gate)” value was “low polyreactivity”. For “QVQLVESGGGLVQAGGSLRISCAASGGNFDSNAMGWTRPAPGKVRELVAAISDSGGSTYYADSVKGRFTISRDNAYNTVYLQMNSLKPEDTAVYYCAADSDYHFVNYRFGMDYWGQGTQVTVSS” the value was “low polyreactivity”; for “QVQLVESGGGLVQAGVSLRLSCAASGFTFYPYAMGWYRQAPGKERELVAAISYSGGRTYADSVKGRFTISRDNAKNTVYLQMNSLKPEDTAVYYCAADWTVLVYPYYHEYDYWGQGTQVTVSS”, “low polyreactivity”; for “QVQLVESGGGLVQAGGSLRLSCAASGIIFEYYAMGWYRQAPGKERELVAAISKRGGSTYYADSVKGRFTISRDNAKNTVYLQMNSLKPEDTAVYYCNARRWWVIRDYWGQGTQVTVSS”, “high polyreactivity”. With “QLQLVESGGGLVQAGGSLLLSCAASGITFPANAMGWYRQAPGKERELVAAITGRGGRTYYADSVKGRFTISRYYAKNTVYLQMISLKPEDTAVYYCNAYLWRVTQNYDYWGQGTQVTVSS”, the “polyreactivity (PSR sort gate)” value is recorded as “high polyreactivity”.

“QVQLVESRGRLVQAGGSLRLSCAASGITFYVYTMGWYRQAPGKERELVAAINGSGGSTNYADSVKGRFTISRDNAKNSVYLHMNSLKTEDTAVYYCAADWSLRLYDYWGQGTQVTVSS”: the “polyreactivity (PSR sort gate)” value is given as “low polyreactivity”. For “QVQLVESGGGLVQAGGSLRLSCAASGSIFGLYAMGWYRQAPGKEREFVASITYSGGSTYYADSVKGRFTISRDNAKNTVYLQMTSLKPEDTAVYYCAAESYWGYDYWGQGTQVTVSS” the value was “high polyreactivity”.

Regarding “QVQLVESGGGLVKAGGSLRLSCAASGFISSSYAMGWYRQAPGKERELVAVITRSGGSTYYADSVKGRFTISRDNAKNTVYLQMNSLKPEDTGVYYCNTDARSKKYIFDFDYWGQGTQVTVSS”, the “polyreactivity (PSR sort gate)” value is given as “high polyreactivity”.

Take “QVQLVESGGGLVQAGGSLRLSCAASGSIFSDNAMGWYRQAPGKERELVAGISSGGGTNYADSVKGRFTISRDNAKNTVYLQMNSLKPEDTGVYDCNADQRDGLELDYWGQGTQVTVSS”: the “polyreactivity (PSR sort gate)” value is listed as “low polyreactivity”.

With “QVQLVESGGGLVQAGGSLRLSCAASGRIFRVYAMGWYRQAPGKERELVAAISWSGGRTYYADSVKGRFTISRDNAKNTVYLQMNSLKPEDTAVYYCAAERGGPTYYSGGDYDYWGQGTQVTVSS”, the “polyreactivity (PSR sort gate)” value was “high polyreactivity”. For the sequence “QVQLVESGGGLVQAGGSLRLSCAASGSIFDQYAMGWYRQAPGKERELVAGISSNGGTSTYYADSVKGRFTISRDNAKNTVYLQMNSLKAEDTAVYYCAAQSHYVDQYGYWGQGTQVTVSS”, the “polyreactivity (PSR sort gate)” value was “low polyreactivity”. For “QVQLVESGGGLVQAGGSLRLSCAASGRIFSNNAMGWYRQAPGKERELVAAISWNGGRTYYADSVKGRFTISRDNAKNTVYLQMNSLKPEDTAVYYCAAGRYDYWGQGTQVTVSS” the value was “high polyreactivity”. For “QVQLVESGGGLVQAGGSLRLSCAASGSTFRYNAMGWYRQAPGKERELVAAISKGGGRTYYADSVKGRFTISRDNAKNTVYLQMNSLKPEDTAVYYCAATYGTGRRSKYGYWGQGTQVTVSS” the value was “high polyreactivity”; for “QVQLVESGGGLVQSGGSLRLSCAASGRTFRYYAMGWYRQAPGKERELVAAISSSGDRTYYADSVKGRFTISRDNAKNTVYLQMNSLKPEDTAVYFCAADRGARGDYWGQGTQVTVSS”, “high polyreactivity”.

With “QVQLVESGGGLVQAGGSLRLSCAASGRIFWYYAMGWYRQAPGKERELVATISSGGRTNYADSVKGRCTISRDNAKNTVYLQMNSLKPEDTAVYYCAAKHPISTLYDYWGQGTQVTVSS”, the “polyreactivity (PSR sort gate)” value is given as “high polyreactivity”. On to “QVQLVESGGGLVQAGGSLRLSCAASGSTFDTNDMGWDRQAPGKERELVAAISSGGDYADSVKGRFTISRDNAKNTVYLQLNSLKPEDTAVYYCAKADTKWGQGTQVTVSS”, for which the “polyreactivity (PSR sort gate)” value is “low polyreactivity”.

Take “QVQLVESGGGLVQAGGSLRLSCAASGFIFRRYAMGWYRQAPGKERELVAAIRWDDGNTYYADSVKGRFTISRDNAKNTVYLQMNSLKPEDTAVYYCYADKWSSTDDWLYDYWGQGTQVTVSS”: the “polyreactivity (PSR sort gate)” value is “low polyreactivity”.

As to “QVQLVESGGGLVQAGGSLRLSCAASGSIFRGYTMGWYRQAPGKERELVAAISRSGGSTYYADSVKGRFTISRDNAKNTVYIQMNSLKPEDTAVYYCNVVYFVTTSPGYDYWGQGTQVTVSS”, the “polyreactivity (PSR sort gate)” value is “high polyreactivity”. With “QVQLVESGGGIVQAGGSLRLSCAASGYTFAKYAMGWYRQEPGKERELVAAISSSGGRTYYADSVKGRFTISRDIAKNTVYLQMNSLKPEDTAVYYCNAYGQRDYWGQGSQVTVSS”, the “polyreactivity (PSR sort gate)” value is recorded as “high polyreactivity”. For “QVQLVESGGGLVQAGGSLRLSCAASGFTFYTNAMGWYRQAPGKEREFVAAISFSGGTYYADSVKGRFTISRDNAKNTVYLQMNSLKPEDTAVYYCNARYPRYYRGVIQYDYWGQGTQVTVSS” the value was “low polyreactivity”; for “QVQRVESGGGLVQAGGSLRLSCAASGSNFDKNPMGWYRQAPGKEREVVAAISRSGGSTNYADSVKGRFTISRDNAKTTDFLLMYSVKPEDTAVYYFAAQSRYWTYDSWGQGTQVNVSS”, “high polyreactivity”; for “QVQLVESGGGLVQAGGSLRLSCAASGRISQIYAMGWYRQAPGKERELVARITSTDSTYYADSVKGRFTISRDNAKNTVYLQMNSLKPEDTAVYYCAASWWSPYDYWGQGTQVTVSS”, “low polyreactivity”. As to “QVQLVESGGGLVQAGGSLRLSCAASGFIIYYNAMGWYRQAPGKEREFVAGISFSGDGRTYYADSVKGRFTISRDNAKNTVYLQMNSLKPEDTAVYYCAAPHRSRTHELDYWGQGTQVTVSS”, the “polyreactivity (PSR sort gate)” value is given as “low polyreactivity”. For “QVQLVESGGGLVQAGGSLRLSCAASGSTFTWYAMGWYRQAPGKERELVADISYGGRSTYYADSVKGRFTISRDNAKNTVYLQMNSLKPEDTAVYYCAAESIPYYRYDYWGQGTQVTVSS”, the “polyreactivity (PSR sort gate)” value is listed as “low polyreactivity”.

As to “QVQLVESGGGLVQAGGSLRLSCAASGSTFDRNVMGWYRQAPGKERELVAAISRVSSTNYADSVKGRFTISRDNAKNTVYLQMNSLKPEDTAVYYCNARRESYYQRYRVDYWGQGTQVTVSS”, the “polyreactivity (PSR sort gate)” value is reported as “low polyreactivity”. As for “QVQLVESGGGLVQAGGSLRLSCAASGYIFGVYAMGWYRQAPGKERELVAAISYGVGSTYYADSVKGRFTISRDNAKNTVYLQMNSLKPEDTAVYYCAADVFFYVYEAYLLYYWGQGTQVTVSS”, the “polyreactivity (PSR sort gate)” value is given as “low polyreactivity”.

“QVQLVESGGGLVQAGGSLRLSSAASGRTFWRYGMGWYRQAPGKERELVAAITDSGDSTYYADSVKGRFTISRDNAKNTVYLQMNSLKPEDTAVYYCAASDVVFALNGYYPGEDDYWGQGTQVTVSS”: the “polyreactivity (PSR sort gate)” value was “low polyreactivity”. For “QVQLVESGGGLVQAGGSLRLSCAASGRTFGKYAMGWDRQAPGKEMELVAAISTDVGDTYYADSVKGRFTISRDNAKNTVYLQMNSLKPEDTAVYYCAASFVYYGVDFVSWFWEGDYWGQGTQVTVSS”, the “polyreactivity (PSR sort gate)” value was “low polyreactivity”.

Regarding “QDQLVESGGGFVQAGGSLRLSCEASGSIFNYYAMGCSRQAPGKERELVAAITTSGGNTYYADSVKGRFTISRDNAKNTVYLQMNSLKPEDTAVYYCAADYWASGGEYDYWGQGTQVTVSS”, the “polyreactivity (PSR sort gate)” value was “low polyreactivity”. For “QVQLVESGGGLVQAGGSLRLSCAASVRIFATNAMGWSRQAPGKERELVARISRRGGSTNYADSVKGRFTISRDNAKNTVYLQMNSLKPEDTAVYYCNVSFYWYRWYALLDYWGQVTQVTVSS” the value was “high polyreactivity”. Next, “QVQLVESGGGLVQAGGSLRLSCAPSGRTFYYYAMGWYRQAPGKERELVAAISRGSTYYADSVKGRFTISRDNAKNTVYLQMNSLKPEDTAVYYCAARYHNYWNRYIYDYWGQGTQVTVSS”: “high polyreactivity”; “QVQLVESGGGLVQAGGSLRLSCAASGSIFYLYTMGWYRQAPGKERELVAAITSGGSTNYADSVKGRFTISRDNAKNTVYLQMNSLKPEDTAVYYCAAEYFDWWVTYDYWGQGTQVTVSS”: “high polyreactivity”. In the case of “QVQLVESGGGLVQAGGSLRLSCAASGSIFGRNVMGWYRQAPGKERELVAAISEGGGRTYYADSVKGRFTISRDNAKNTVYLQMNSLKPEDTAVYYCAAAYFSSGYKYYYWGQGTQVTVSS”, the “polyreactivity (PSR sort gate)” value is given as “high polyreactivity”. For “QVQLVESGGGLVQAGGSLRLSCAASGSIFGFNAMGWYRQAPGKERELVAAISSGSTYYADSVKGRFTISRDNAKNTVYLQMNRLKPEDTAVYYCAATTGYSWYGYWGQGTQVTVSS” the value was “low polyreactivity”; for “QVQLVESGGGLVQAGGSLRLSCAASGFTFSSYYMGWYRQAPGKERELVAAITSSGDDTYYADSVKGRFTISRDNAKNTVYLQMNSLKPEDTAVYYCAAEYTEGYTHDYGGQGTQVTVSS”, “low polyreactivity”. Next, “QDQHVESGGGLVQAGGSLRLSCAASGSTFDWNAMGWSRQAPGKERELVAGISWNGGSTYYADSVKGRFTISRDNAKNTVYLQMNSLKPEDTAVYYCNVVYGTTEYDYWGQGTQVTVSS”: “low polyreactivity”.

“QVQLVESGGGLFQAGGSLRLSCAASGFTIEWYAMGWYRQAPGKERELVATITSSGDSTYYADSEKGRFTISRDNAKNTVYFQMYSLKPEDTAVYYCNVDNSVYDFSEYVYWGQVTQVTVSS”: the “polyreactivity (PSR sort gate)” value was “high polyreactivity”.

Regarding “QVQLVESGGGLVQAGGSLLLSCAASGYTFGTYDMGWYRQAPGKERELVAAISIGGSTNYADSVKGRFTISRDNAKNTVYLQMNSLKPEDTAVYYCAAEVNVGTLLLSVIVEDGDYWGQGTQVTVSS”, the “polyreactivity (PSR sort gate)” value was “low polyreactivity”.

As for “QVQLVESGGGLVQAGGSLRLSCAASGFIFYVKAMGWYRKAPGKERELVASITNGGSTTYADSVKGRFTISRDNAKNTDDLQMNSLKPEDTAVYYCHASGLDFSYFDEFNYWGQGTQVTVSS”, the “polyreactivity (PSR sort gate)” value is reported as “low polyreactivity”. Next, “QVQLVESGGGIVQAGGSLRLSCAASGFTYVYYVMGWYRQAPGKDRELVAAINAGGGSTYYADSVKGRFTNSRDIAKNTVYLQMNSLKPEDTADYYCNARVRVRLGRNWSSYYYWGQGTQVTVSS”: “high polyreactivity”.
